molecular target: T1, CD3εδ complex protein (human; alpaca, UniProt P07766 23-126; P04234 22-105); test: ELISA, CD3 complex immobilized
T1 construct: they are not part of the secreted protein; also called human CD3; CD386 complex protein
Experimental: Binding activities of the anti-TSPAN8/anti-CD3 bispecific antibodies BTE-0001 to BTE-0067 to CD3 were evaluated by the ELISA. ELISA was performed according to a conventional method. The […] complex protein obtained in Example 1-3 was immobilized on a plate. BTE-0001 to BTE-0067 were used as the test antibodies. As a secondary antibody, Goat anti-Human IgG Fc, Multi-Species SP ads-HRP (2014-05, available from SouthernBiotech) was used. TMB+Substrate-Chromogen (S1599, available from Dako) was used as the detection reagent. Infinite M200pro (available from Tecan) was used to measure the absorbance. The EC50 values were calculated using variable slope model (four parameters) in GraphPad Prism with the maximum value in the same plate fixed at the top and the minimum value in the blank in the same plate fixed at the bottom. Since BTE-0001 was always measured in each plate as a control, only the EC50 value of BTE-0001 was expressed as the average value of a plurality of plates. […]

T1 sequence (P07766 23-126 limits assumed, stated change not applied, form in doubt, chain 1 of 2): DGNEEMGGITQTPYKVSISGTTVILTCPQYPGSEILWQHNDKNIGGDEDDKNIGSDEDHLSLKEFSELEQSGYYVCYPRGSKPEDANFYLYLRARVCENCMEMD
T1 sequence (P04234 22-105 limits assumed, stated change not applied, form in doubt, chain 2 of 2): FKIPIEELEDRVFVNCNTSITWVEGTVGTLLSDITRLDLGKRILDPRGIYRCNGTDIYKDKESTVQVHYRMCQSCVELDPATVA

Binder | EC50
BTE-0147 (bispecific antibody, human IgG1, kappa, L234A L235A, anti-CD37/anti-CD3) heavy: QVQLQQWGAGLLKPSETLSLTCAVYGGSFSPYYWSWIRQPPGKGLEWIGEINHSGSTNYNPSLKSRVTISVDTSKNQFSLKLSSVTAADTAVYYCARRAGDFDYWGQGTLVTVSSASTKGPSVFPLAPSSKSTSGGTAALGCLVKDYFPEPVTVSWNSGALTSGVHTFPAVLQSSGLYSLSSVVTVPSSSLGTQTYICNVNHKPSNTKVDKKVEPKSCDKTHTCPPCPAPEAAGGPSVFLFPPKPKDTLMISRTPEVTCVVVDVSHEDPEVKFNWYVDGVEVHNAKTKPREEQYNSTYRVVSVLTVLHQDWLNGKEYKCKVSNKALAAPIEKTISKAKGQPREPQVYTLPPSRDELTKNQVSLSCAVKGFYPSDIAVEWESNGQPENNYKTTPPVLDSDGSFFLVSKLTVDKSRWQQGNVFSCSVMHEALHNHYTQKSLSLSPGK light: not shown scFv: not shown | 0.0317 µg/mL
BTE-0148 (bispecific antibody, human IgG1, kappa, L234A L235A, anti-CD37/anti-CD3) heavy: QVQLQQWGAGLLKPSETLSLTCAVYGGSFSPYYWSWIRQPPGKGLEWIGEINHSGSTNYNPSLKSRVTISVDTSKNQFSLKLSSVTAADTAVYYCARRAGDFDYWGQGTLVTVSSASTKGPSVFPLAPSSKSTSGGTAALGCLVKDYFPEPVTVSWNSGALTSGVHTFPAVLQSSGLYSLSSVVTVPSSSLGTQTYICNVNHKPSNTKVDKKVEPKSCDKTHTCPPCPAPEAAGGPSVFLFPPKPKDTLMISRTPEVTCVVVDVSHEDPEVKFNWYVDGVEVHNAKTKPREEQYNSTYRVVSVLTVLHQDWLNGKEYKCKVSNKALAAPIEKTISKAKGQPREPQVYTLPPSRDELTKNQVSLSCAVKGFYPSDIAVEWESNGQPENNYKTTPPVLDSDGSFFLVSKLTVDKSRWQQGNVFSCSVMHEALHNHYTQKSLSLSPGK light: not shown scFv: not shown | 0.0364 µg/mL
BTE-0149 (bispecific antibody, human IgG1, kappa, L234A L235A, anti-CD37/anti-CD3) heavy: QVQLQQWGAGLLKPSETLSLTCAVYGGSFSPYYWSWIRQPPGKGLEWIGEINHSGSTNYNPSLKSRVTISVDTSKNQFSLKLSSVTAADTAVYYCARRAGDFDYWGQGTLVTVSSASTKGPSVFPLAPSSKSTSGGTAALGCLVKDYFPEPVTVSWNSGALTSGVHTFPAVLQSSGLYSLSSVVTVPSSSLGTQTYICNVNHKPSNTKVDKKVEPKSCDKTHTCPPCPAPEAAGGPSVFLFPPKPKDTLMISRTPEVTCVVVDVSHEDPEVKFNWYVDGVEVHNAKTKPREEQYNSTYRVVSVLTVLHQDWLNGKEYKCKVSNKALAAPIEKTISKAKGQPREPQVYTLPPSRDELTKNQVSLSCAVKGFYPSDIAVEWESNGQPENNYKTTPPVLDSDGSFFLVSKLTVDKSRWQQGNVFSCSVMHEALHNHYTQKSLSLSPGK light: not shown scFv: not shown | 0.209 µg/mL
BTE-0152 (bispecific antibody, human IgG1, kappa, L234A L235A, anti-CD37/anti-CD3) heavy: QVQLQQWGAGLLKPSETLSLTCAVYGGSFSPYYWSWIRQPPGKGLEWIGEINHSGSTNYNPSLKSRVTISVDTSKNQFSLKLSSVTAADTAVYYCARRAGDFDYWGQGTLVTVSSASTKGPSVFPLAPSSKSTSGGTAALGCLVKDYFPEPVTVSWNSGALTSGVHTFPAVLQSSGLYSLSSVVTVPSSSLGTQTYICNVNHKPSNTKVDKKVEPKSCDKTHTCPPCPAPEAAGGPSVFLFPPKPKDTLMISRTPEVTCVVVDVSHEDPEVKFNWYVDGVEVHNAKTKPREEQYNSTYRVVSVLTVLHQDWLNGKEYKCKVSNKALAAPIEKTISKAKGQPREPQVYTLPPSRDELTKNQVSLSCAVKGFYPSDIAVEWESNGQPENNYKTTPPVLDSDGSFFLVSKLTVDKSRWQQGNVFSCSVMHEALHNHYTQKSLSLSPGK light: not shown scFv: not shown | 0.36 µg/mL

Source: patent US20250304706A1 (Astellas, published 2025)
